Measurements from the RNAGym collection of RNA variant scans (doi:10.7554/elife.80360).

B1: Hairpin Ribozyme (parent)
chain: GUCCUCUUUCACGUGCGCGUGAAAGAGAGAAGUGAACCAGAGAAACACACGUUGUGGUAUAUUACCUGGUA

Variants of: B1
Experiment: self-cleavage, relative activity (ratio to wild type); higher = more cleavage; co-transcriptional

| Variant | self-cleavage |
| --- | --- |
| G15A C66A | 0.129 |
| G13C C66G | 0.129 |
| G13C C66A | 0.0627 |
| G13C C66U | 0.431 |
| G13A U67C | 0.27 |
| G13A U67A | 0.27 |
| G13C C48G | 0.102 |
| G13C A24C | 0.466 |
| U14C A45G | 0.0672 |
| U14C A45C | 0.206 |
| G15A C65A | 0.863 |
| U14C G51C | 0.586 |
| U14G G27A | 0.189 |
| U14C A41C | 1.18 |
| U14C A41G | 0.678 |
| G15A C48G | 0.0967 |
| G13U A39U | 0.257 |
| G13U A39C | 0.498 |
| G13C A39C | 0.59 |
| G13C A39G | 0.186 |
| G13U G69U | 0.246 |
| G15A A28U | 0.588 |
| G13U A31U | 0.109 |
| G13U A31G | 0.499 |

| Variant | self-cleavage |
| --- | --- |
| G13C U58C | 0.869 |
| G13C U58A | 0.35 |
| U14C G40U | 0.188 |
| U14C G40A | 0.326 |
| U14C G40C | 0.156 |
| G15A C18G | 0.886 |
| U14G U70A | 0.823 |
| G13U U67C | 0.211 |
| G15A G29U | 0.0945 |
| G15A G68A | 0.362 |
| G15A G68C | 0.219 |
| U14C A47G | 0.118 |
| U14C U58G | 0.545 |
| U14G G40A | 0.289 |
| U14G G40U | 0.2 |
| U14A U52A | 1.03 |
| U14G A45U | 0.147 |
| U14A C37U | 0.481 |
| U14A C37G | 0.295 |
| G13C U67C | 0.126 |
| G13C U67G | 0.281 |
| U14C A30U | 0.148 |
| U14C A30G | 0.116 |
| U14G C65G | 0.213 |

| Variant | self-cleavage |
| --- | --- |
| G15A A39U | 0.351 |
| G15A A39C | 0.508 |
| U14A C38G | 0.0908 |
| U14G A30G | 0.0762 |
| G13C G21A | 0.61 |
| U14G C48G | 0.178 |
| G13C U55A | 0.196 |
| U14C G69C | 0.3 |
| U14G A23C | 0.754 |
| U14G A23U | 0.68 |
| U14C G54C | 0.397 |
| G13C C65A | 0.726 |
| G13C C65G | 0.256 |
| G15A A61G | 0.18 |
| G13U G27C | 0.19 |
| U14A U67G | 0.277 |
| U14A U67C | 0.247 |
| U14A U67A | 0.188 |
| G13U C18U | 0.967 |
| G13U C18A | 0.915 |
| G13U G51A | 0.745 |
| G13U G54U | 0.588 |
| G13A U60C | 1.25 |
| U14G U55A | 0.0772 |

| Variant | self-cleavage |
| --- | --- |
| U14G U55C | 0.286 |
| G15A U62G | 0.109 |
| G15A U62A | 0.177 |
| U14G A22C | 0.75 |
| U14A A23C | 0.789 |
| U14A A23G | 0.814 |
| G13C A44U | 0.137 |
| G13C A44C | 0.281 |
| U14C G68U | 0.13 |
| U14C G68A | 0.234 |
| U14A U62A | 0.0586 |
| U14A U63C | 0.212 |
| G13C G51C | 0.681 |
| U14G G56A | 0.103 |
| U14C G56A | 0.143 |
| G15A A71C | 1.29 |
| G15A A71G | 0.943 |
| U14G G29C | 0.169 |
| U14A G56A | 0.0617 |
| U14A G56U | 0.205 |
| U14A G56C | 0.168 |
| U14G A24C | 0.887 |
| U14C G57C | 0.0473 |
| U14C G57A | 0.215 |

| Variant | self-cleavage |
| --- | --- |
| G13C G15U | 0.695 |
| U14A A59C | 0.179 |
| G13U A44U | 0.147 |
| U14C A61U | 0.293 |
| G13U C65A | 0.845 |
| G13A U63A | 0.194 |
| G13U G32C | 0.232 |
| G15A A31C | 0.151 |
| G13U A36G | 0.65 |
| U14A A35C | 0.998 |
| U14A A35G | 0.956 |
| G13C A59C | 0.11 |
| U14A A36G | 0.864 |
| G13C C18A | 0.932 |
| G15A U53A | 0.862 |
| G15A U53G | 0.687 |
| U14C U33G | 0.191 |
| U14C U33C | 0.0775 |
| G13C G32C | 0.123 |
| G13A U62C | 0.242 |
| U14C C38U | 0.493 |
| G13C G42A | 0.208 |
| U14A G42U | 0.308 |
| U14A G42C | 0.281 |

| Variant | self-cleavage |
| --- | --- |
| U14A A28G | 1.2 |
| G15A U52C | 0.916 |
| G13C A22U | 0.528 |
| U14G C18A | 0.941 |
| U14G C18G | 0.694 |
| G13C G68A | 0.219 |
| G13C G68C | 0.151 |
| G15A U33G | 0.136 |
| U14G G69A | 0.303 |
| U14G C50A | 0.307 |
| G13C G34A | 0.915 |
| U14C A23U | 1.09 |
| U14C C16A | 0.922 |
| U14C C16G | 0.821 |
| G13C A61U | 0.161 |
| G13C U20G | 0.531 |
| G13C U20A | 0.492 |
| G13C U20C | 0.785 |
| U14G A39C | 0.393 |
| G15A A23G | 0.862 |
| G13C G27U | 0.19 |
| U14C U67G | 0.344 |
| U14C U67A | 0.151 |
| U14C G27C | 0.078 |

| Variant | self-cleavage |
| --- | --- |
| G15A A41G | 0.92 |
| U14C A64G | 0.568 |
| U14C G29U | 0.198 |
| G15A U70C | 0.759 |
| G15A A45U | 0.204 |
| G15A A45C | 0.0834 |
| U14A G29A | 0.227 |
| G13U A41C | 0.91 |
| G13U U52C | 0.655 |
| G15A G17U | 1.05 |
| U14G G57C | 0.0955 |
| U14A C65G | 0.323 |
| U14A C65U | 0.292 |
| G15A G34U | 1.26 |
| G15A G34A | 1.11 |
| U14G G32C | 0.0712 |
| G13C C46U | 0.218 |
| G13C C46A | 0.137 |
| U14A C66A | 0.0937 |
| U14G C38G | 0.119 |
| U14G U62G | 0.106 |
| G13U A49C | 0.117 |
| G13C C50G | 0.278 |
